Source: publication PMC7049166 (Proceedings of the National Academy of Sciences of the …, 2020)
Changes are numbered by the printed parent chain. In names and notes the source's numbering stands. Several values for one entry are separate records, joined by “and”; a condition that tells them apart may be missing. Equal entries are not always repeated.

What was measured:
crystal structure = target: the molecule itself; experiment: crystal structure
[1] = target: the molecule itself; experiment: cell-based or functional assay
SEC-MALS = target: the molecule itself; experiment: SEC-MALS
AUC = target: the molecule itself; experiment: AUC
cross-linking = target: the molecule itself; experiment: cross-linking

B1: S. cerevisiae short Mgm1 (s-Mgm1), truncated version, residues 184-881 (domain or fragment, UniProt P32266 184-881, looked up)
chain: MLNLTKQMIEIRTILNKVDSSSAHLTLPSIVVIGSQSSGKSSVLESIVGREFLPKGSNMVTRRPIELTLVNTPNSNNVTADFPSMRLYNIKDFKEVKRMLMELNMAVPTSEAVSEEPIQLTIKSSRVPDLSLVDLPGYIQVEAADQPIELKTKIRDLCEKYLTAPNIILAISAADVDLANSSALKASKAADPKGLRTIGVITKLDLVDPEKARSILNNKKYPLSMGYVGVITKTPSSINRKHLGLFGEAPSSSLSGIFSKGQHGQSSGEENTNGLKQIVSHQFEKAYFKENKKYFTNCQVSTKKLREKLIKILEISMSNALEPTSTLIQQELDDTSYLFKVEFNDRHLTPKSYLLNNIDVLKLGIKEFQEKFHRNELKSILRAELDQKVLDVLATRYWKDDNLQDLSSSKLESDTDMLYWHKKLELASSGLTKMGIGRLSTMLTTNAILKELDNILESTQLKNHELIKDLVSNTAINVLNSKYYSTADQVENCIKPFKYEIDLEERDWSLARQHSINLIKEELRQCNSRYQAIKNAVGSKKLANVMGYLENESNLQKETLGMSKLLLERGSEAIFLDKRCKVLSFRLKMLKNKCHSTIEKDRCPEVFLSAVSDKLTSTAVLFLNVELLSDFFYNFPIELDRRLTLLGDEQVEMFAKEDPKISRHIELQKRKELLELALEKIDSILVFKKSYKGVSKNL
For B1, the “stoichiometry N” value (crystal structure) was 3, the “stimulation of s-Mgm1 GTPase activity by liposomes with 10% or 20% cardiolipin” value [1] was 8 fold and the “stoichiometry N” value (SEC-MALS) was 2.

B2: s-Mgm1 R712A/E751A mutant (domain or fragment, S. cerevisiae, UniProt P32266 184-881, looked up)
chain: B1 chain with R529A, E568A
B2: binds (AUC).

B3: HA-tagged s-Mgm1 S397C/E751C mutant (with 4CS mutations C341S, C676S, C709S, C763S) (domain or fragment, S. cerevisiae, UniProt P32266 184-881, looked up)
chain: B1 chain with C158S, S214C, C493S, C526S, E568C, C580S
B3 was tested, and the “stoichiometry N” value (cross-linking) was 2 and 3.
